GABA = NCCCC(=O)O
Key:
Conditions in all cases: both partners purified
[1] = molecular target: T1, Tat-P-TEFb complex (HIV-1 Tat 1–86, CDK9 1–330, cyclin T1 1–264) (human | HIV-1, UniProt P50750;O60563;P04608); assay: fluorescence polarisation; competition titration of unlabeled AFF4 segments against 5 nM fluorescent peptide with 75 nM CycT1, 45 nM P-TEFb or 6 nM Tat-P-TEFb; 25 mM HEPES pH 7.5, 100 mM NaCl, 10% glycerol, 0.1% NP40, 0.5 mM TCEP
T1 construct: also called P-TEFb-Tat; not shown: His-tag, N-terminal, cleaved; copies: + +

[2] = molecular target: T2, P-TEFb (CDK9 1–330 / cyclin T1 1–264) (human, UniProt P50750 1-330; O60563 1-264); assay: as above
T2 construct: also called positive transcription elongation factor b; source: High5 insect cells (baculovirus), purified (His-Trap, TEV digest, His-Trap); not shown: His-tag, N-terminal, cleaved
T2 sequence (P50750 1-330, chain 1 of 2): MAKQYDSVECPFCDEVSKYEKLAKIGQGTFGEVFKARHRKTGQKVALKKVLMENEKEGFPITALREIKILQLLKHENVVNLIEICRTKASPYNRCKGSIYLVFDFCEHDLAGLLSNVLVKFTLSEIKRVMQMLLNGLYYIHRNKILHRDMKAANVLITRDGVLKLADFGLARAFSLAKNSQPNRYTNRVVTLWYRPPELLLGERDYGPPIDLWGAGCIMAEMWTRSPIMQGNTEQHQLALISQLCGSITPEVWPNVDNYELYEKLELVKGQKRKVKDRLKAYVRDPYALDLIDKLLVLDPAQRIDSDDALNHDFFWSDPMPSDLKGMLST
T2 sequence (O60563 1-264, chain 2 of 2): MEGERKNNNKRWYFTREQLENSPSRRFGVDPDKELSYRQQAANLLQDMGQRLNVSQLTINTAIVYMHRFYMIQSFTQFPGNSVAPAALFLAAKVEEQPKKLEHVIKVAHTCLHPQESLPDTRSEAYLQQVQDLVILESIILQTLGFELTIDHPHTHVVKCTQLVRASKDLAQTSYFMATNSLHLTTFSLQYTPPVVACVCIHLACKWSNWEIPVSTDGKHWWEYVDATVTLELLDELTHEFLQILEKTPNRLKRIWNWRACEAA

[3] = molecular target: T3, cyclin T1 (CycT1), purified alone, wild type (human, UniProt O60563 1-264); assay: as above
T3 construct: source: purified
T3 sequence (O60563 1-264): as the sequence (O60563 1-264, chain 2 of 2) above

[4] = molecular target: T1, Tat-P-TEFb complex (HIV-1 Tat 1–86, …); assay: fluorescence polarisation
[5] = molecular target: T2, P-TEFb (CDK9 1–330 / cyclin T1 1–264); assay: fluorescence polarisation
[6] = molecular target: T3, cyclin T1 (CycT1), purified alone, wild …; assay: fluorescence polarisation

SPLFAEPYKVTSKEDKLSSRIQSMLGNYDEMKDFIG [unlabeled AFF4(32–67) peptide]
Kd [1]: 4.5 ± 0.6 nM
Kd [2]: 36 ± 4 nM
Kd [3]: 102 ± 10 nM

B1: fluorescein-labeled AFF4(32–67) peptide (peptide)
peptide: {FAM-GABA}-SPLFAEPYKVTSKEDKLSSRIQSMLGNYDEMKDFIG-NH2
notes: source: synthetic peptide (University of Utah DNA/Peptide Facility)
Kd [4]: 8.8 ± 0.8 nM
Kd [5]: 36 ± 6 nM
Kd [6]: 104 ± 17 nM

B2: AFF4(2–363) (domain or fragment, human, UniProt Q9UHB7 2-363, looked up)
chain: NREDRNVLRMKERERRNQEIQQGEDAFPPSSPLFAEPYKVTSKEDKLSSRIQSMLGNYDEMKDFIGDRSIPKLVAIPKPTVPPSADEKSNPNFFEQRHGGSHQSSKWTPVGPAPSTSQSQKRSSGLQSGHSSQRTSAGSSSGTNSSGQRHDRESYNNSGSSSRKKGQHGSEHSKSRSSSPGKPQAVSSLNSSHSRSHGNDHHSKEHQRSKSPRDPDANWDSPSRVPFSSGQHSTQSFPPSLMSKSNSMLQKPTAYVRPMDGQESMEPKLSSEHYSSQSHGNSMTELKPSSKAHLTKLKIPSQPLDASASGDVSCVDEILKEMTHSWPPPLTAIHTPCKTEPSKFPFPTKESQQSNFGTGEQK
Kd [1]: 0.6 ± 0.1 nM
Kd [2]: 7 ± 1 nM

B3: AFF4(2–73) (domain or fragment, human, UniProt Q9UHB7 2-73, looked up)
chain: NREDRNVLRMKERERRNQEIQQGEDAFPPSSPLFAEPYKVTSKEDKLSSRIQSMLGNYDEMKDFIGDRSIPK
notes: source: E. coli Rosetta(DE3)pLysS, purified (His-Trap, TEV digest, His-Trap); not shown: His-tag, N-terminal, cleaved
Kd [1]: 0.85 ± 0.15 nM
Kd [2]: 10 ± 1 nM
Kd [3]: 130 ± 18 nM

Source: paper PMC3589825, “The AFF4 scaffold binds human P-TEFb adjacent to HIV Tat” (eLife, 2013)
